US20240116985A1, “STAPLED PEPTIDES AND METHODS THEREOF” (priority 2020, published 2024)
One block for each binder: values may come before it. Starred links: 1 amine or outer side, 2 acyl side, 3 side chain; linkers in the order of their positions; H or OH if unused. Positions of bridges follow the written chain, without caps; N, C: chain ends. Non-standard residues stand in square brackets, D forms with d. Primed or numbered codes have the meaning given here. *: point of attachment. PyrS2″ = (S)-3-amino-1-((pent-4-en-1-yloxy)carbonyl)pyrrolidine-3-carboxylic acid (stapling residue), C=CCCCOC(=O)N1CC[C@@](N[*:1])(C(=O)[*:2])C1; B5(4) = 2,2-bis(4-pentenyl)glycine = 2-amino-2-(pent-4-en-1-yl)hept-6-enoic acid (stitching residue), C=CCCCC(CCCC=C)(N[*:1])C(=O)[*:2]; B5(5) = 2,2-bis(4-pentenyl)glycine, 2-amino-2-(pent-4-en-1-yl)hept-6-enoic acid (stitching residue), C=CCCCC(CCCC=C)(N[*:1])C(=O)[*:2]; B5(33) = 2-amino-2-(pent-4-en-1-yl)hept-6-enoic acid (bis-pentenylglycine, two olefin side chains), C=CCCCC(CCCC=C)(N[*:1])C(=O)[*:2]; B5(20) = 2-amino-2-(pent-4-en-1-yl)hept-6-enoic acid = bis(4-pentenyl)glycine, stitching residue, C=CCCCC(CCCC=C)(N[*:1])C(=O)[*:2]; PyrS2 = (S)-3-amino-1-((pent-4-en-1-yloxy)carbonyl)pyrrolidine-3-carboxylic acid, C=CCCCOC(=O)N1CC[C@@](N[*:1])(C(=O)[*:2])C1; B5(3) = 2,2-bis(4-pentenyl)glycine (stitching residue), C=CCCCC(CCCC=C)(N[*:1])C(=O)[*:2]; S10 = (S)-2-amino-2-methyldodec-11-enoic acid, C=CCCCCCCCC[C@](C)(N[*:1])C(=O)[*:2]; mPEG2 = N-terminal 3-(2-methoxyethoxy)propanoic acid, COCCOCCC(=O)*; Ala(4-thiazolyl) = N[C@@H](Cc1cscn1)C(=O)O; Abu(4,4,4-F3) = N[C@@H](CC(F)(F)F)C(=O)O; Phe(4-NH2) = Nc1ccc(C[C@H](N)C(=O)O)cc1; Ala(2-furyl) = N[C@@H](Cc1ccco1)C(=O)O; Phe(2-Cl) = N[C@@H](Cc1ccccc1Cl)C(=O)O; Phe(3-Me) = Cc1cccc(C[C@H](N)C(=O)O)c1; Phe(4-Me) = Cc1ccc(C[C@H](N)C(=O)O)cc1; 1Nal = N[C@@H](Cc1cccc2ccccc12)C(=O)O; 2Nal = N[C@@H](Cc1ccc2ccccc2c1)C(=O)O; Phe(2-Me) = Cc1ccccc1C[C@H](N)C(=O)O; Abu(4,4-F2) = N[C@@H](CC(F)F)C(=O)O; Bta = N[C@@H](Cc1csc2ccccc12)C(=O)O; αAllylPro = C=CC[C@@]1(C(=O)O)CCCN1; tBuAla = CC(C)(C)C[C@H](N)C(=O)O; 3Thi = N[C@@H](Cc1ccsc1)C(=O)O; S8 = C=CCCCCCC[C@](C)(N)C(=O)O; Thr(ol) = C[C@@H](O)[C@H](N)CO; Propanoyl(3-OMe) = COCCC(=O)*; Leu(ol) = CC(C)C[C@H](N)CO; Octanoyl = CCCCCCCC(=O)*; Dab = NCC[C@H](N)C(=O)O; Nva = CCC[C@H](N)C(=O)O; Abu = CC[C@H](N)C(=O)O; Dap = NC[C@H](N)C(=O)O; Alaol = C[C@@H](CO)N*; Ms = CS(=O)(=O)*

What was measured:
[1] = biological target: full-length beta-Catenin (Uniprot ID P35222) (Homo sapiens (Human)) (UniProt P35222); experiment: fluorescence polarization competition; full-length beta-catenin, competitor 5FAM-TCF4(10-53) probe
Target sequence in this assay (P35222 whole entry): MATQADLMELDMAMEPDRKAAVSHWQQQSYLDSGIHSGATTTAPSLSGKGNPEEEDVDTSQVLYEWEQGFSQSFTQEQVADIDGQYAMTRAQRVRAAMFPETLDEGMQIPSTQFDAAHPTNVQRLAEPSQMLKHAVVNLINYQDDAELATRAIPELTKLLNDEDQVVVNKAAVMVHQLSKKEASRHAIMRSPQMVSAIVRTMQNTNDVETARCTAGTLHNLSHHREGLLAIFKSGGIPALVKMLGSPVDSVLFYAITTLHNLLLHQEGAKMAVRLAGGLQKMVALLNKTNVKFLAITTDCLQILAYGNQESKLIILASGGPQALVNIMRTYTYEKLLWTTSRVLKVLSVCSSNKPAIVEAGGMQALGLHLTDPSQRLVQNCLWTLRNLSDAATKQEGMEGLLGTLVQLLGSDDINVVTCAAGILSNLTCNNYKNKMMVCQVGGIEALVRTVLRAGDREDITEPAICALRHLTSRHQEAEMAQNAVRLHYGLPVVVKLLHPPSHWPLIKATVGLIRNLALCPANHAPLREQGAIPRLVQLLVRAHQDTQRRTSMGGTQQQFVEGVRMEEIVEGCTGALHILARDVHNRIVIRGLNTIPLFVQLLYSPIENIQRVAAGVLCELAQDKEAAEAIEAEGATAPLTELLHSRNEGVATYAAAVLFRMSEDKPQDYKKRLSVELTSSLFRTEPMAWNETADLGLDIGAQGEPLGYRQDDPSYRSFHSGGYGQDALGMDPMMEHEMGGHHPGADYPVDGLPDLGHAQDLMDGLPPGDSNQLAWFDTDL

[2] = biological target: full-length beta-Catenin (Uniprot ID P35222) (Homo sapiens (Human)) (UniProt P35222); experiment: fluorescence polarization competition: full-length beta-catenin + 5FAM-TCF4(10-53) probe, peptide titrated
Target sequence in this assay (P35222 whole entry): as above

[3] = biological target: full-length beta-Catenin (Uniprot ID P35222) (Homo sapiens (Human)) (UniProt P35222); experiment: fluorescence polarization competition; 10 nM full-length beta-catenin + 10 nM 5FAM-TCF4(10-53) probe
Target sequence in this assay (P35222 whole entry): as above

[4] = biological target: full-length beta-Catenin (Uniprot ID P35222) (Homo sapiens (Human)) (UniProt P35222); experiment: FP competition: full-length beta-catenin 10 nM + 5FAM-TCF4(10-53) 10 nM
Target sequence in this assay (P35222 whole entry): as above

[5] = biological target: full-length beta-Catenin (Uniprot ID P35222) (Homo sapiens (Human)) (UniProt P35222); experiment: fluorescence polarization competition; full-length beta-catenin + 5FAM-TCF4(10-53) probe
Target sequence in this assay (P35222 whole entry): as above

[6] = biological target: full-length beta-Catenin (Uniprot ID P35222) (Homo sapiens (Human)) (UniProt P35222); experiment: fluorescence polarization competition, competitor 5FAM-TCF4 10-53
Target sequence in this assay (P35222 2-781 limits assumed): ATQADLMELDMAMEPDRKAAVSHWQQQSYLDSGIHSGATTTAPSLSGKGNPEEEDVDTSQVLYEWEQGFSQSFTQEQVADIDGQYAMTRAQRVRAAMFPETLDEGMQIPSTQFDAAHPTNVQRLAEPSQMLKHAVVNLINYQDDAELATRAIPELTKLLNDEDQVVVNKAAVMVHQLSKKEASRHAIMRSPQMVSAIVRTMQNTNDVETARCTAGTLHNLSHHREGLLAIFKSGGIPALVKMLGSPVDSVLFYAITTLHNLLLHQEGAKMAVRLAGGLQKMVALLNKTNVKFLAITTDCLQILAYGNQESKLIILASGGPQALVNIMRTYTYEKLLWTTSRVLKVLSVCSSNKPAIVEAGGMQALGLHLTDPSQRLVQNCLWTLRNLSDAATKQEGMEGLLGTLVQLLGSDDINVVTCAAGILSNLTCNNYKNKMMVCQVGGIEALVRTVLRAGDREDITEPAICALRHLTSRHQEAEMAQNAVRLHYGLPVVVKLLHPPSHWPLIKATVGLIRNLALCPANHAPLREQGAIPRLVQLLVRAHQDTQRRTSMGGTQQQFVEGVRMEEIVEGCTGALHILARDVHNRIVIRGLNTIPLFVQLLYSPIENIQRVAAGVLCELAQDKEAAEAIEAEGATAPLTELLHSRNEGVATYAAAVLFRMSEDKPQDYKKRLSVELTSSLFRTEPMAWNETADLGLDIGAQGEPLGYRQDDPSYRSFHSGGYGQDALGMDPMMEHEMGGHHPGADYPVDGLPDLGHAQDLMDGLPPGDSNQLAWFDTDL

[7] = biological target: full-length beta-Catenin (Uniprot ID P35222) (Homo sapiens (Human)) (UniProt P35222); experiment: FP competition: displacement of 5FAM-TCF4(10-53) from full-length beta-catenin
Target sequence in this assay (P35222 whole entry): as the sequence (P35222 whole entry) above

[8] = biological target: full-length beta-Catenin (Uniprot ID P35222) (Homo sapiens (Human)) (UniProt P35222); experiment: fluorescence polarization competition; displacement of 5FAM-TCF4(10-53) from full-length beta-catenin

EC50 [5]: 23 nM
IC50 [6]: 23 nM
B1: I-1260 (peptide)
peptide: XDXXDDAAFTXFXQ
modifications: not fully specified; as printed: MeSO2-PL3-Asp-Npg-B5-Asp-Asp-Ala-Ala-Phe-Thr-S8-2C1F-BztA-Gln-NH2; stapled

EC50 [5]: 152 nM
IC50 [6]: 152 nM
B2: I-1265 (peptide)
peptide: Ac-[αAllylPro]D[tBuAla][B5(3)]DTALFT[PyrS2″]F[Bta]S-NH2
modifications: staple 1-4; staple 4-11 (inferred); not fully specified; printed as Ac-PL3-Asp-Npg-B5-Asp-Thr-Ala-Leu-Phe-Thr-PyrS2-Phe-BztA-Ser-NH2

EC50 [5]: 1120 nM
IC50 [6]: 1120 nM
B3: I-1262 (peptide)
peptide: XDXXDDAAFTXFXT
modifications: not fully specified; as printed: Ac-PL3-Asp-Npg-B5-Asp-Asp-Ala-Ala-Phe-Thr-S10-2C1F-BztA-Thr-NH2; stapled

EC50 [5]: 157 nM
IC50 [6]: 157 nM
B4: I-1264 (peptide)
peptide: Ac-[αAllylPro]D[tBuAla][B5(33)]DTLAFT[PyrS2]F[Bta]S-NH2
modifications: staple 1-4, 4-11 (inferred); not fully specified; printed as Ac-PL3-Asp-Npg-B5-Asp-Thr-Leu-Ala-Phe-Thr-PyrS2-Phe-BztA-Ser-NH2

IC50 [6]: 530 nM
EC50 [7]: 530 nM
Binder: Octanoyl-[αAllylPro]D[tBuAla][B5(4)]DDAAFT[S8][Phe(2-Cl)][Bta]Q-NH2 (staple 1-4, 4-11) [I-1254]

EC50 [5]: 43 nM
IC50 [6]: 43 nM
B5: I-1263 (peptide)
peptide: Ac-[αAllylPro]D[tBuAla][B5(33)]DTAAFT[PyrS2]F[Bta]S-NH2
modifications: staple 1-4, 4-11 (inferred); not fully specified; printed as Ac-PL3-Asp-Npg-B5-Asp-Thr-Ala-Ala-Phe-Thr-PyrS2-Phe-BztA-Ser-NH2

IC50 [6]: 31 nM
EC50 [7]: 31 nM
Binder: Ac-[αAllylPro]D[tBuAla][B5(4)]DDAAFL[PyrS2″][Phe(2-Cl)][Bta]-Alaol (staple 1-4, 4-11) [I-1250]

IC50 [6]: 32 nM
EC50 [7]: 32 nM
Binder: mPEG2-[αAllylPro]D[tBuAla][B5(4)]DDAAFT[S8][Phe(2-Cl)][Bta]Q-NH2 (staple 1-4, 4-11) [I-1255]

EC50 [5]: 755 nM
IC50 [6]: 755 nM
B6: I-1266 (peptide)
peptide: Ac-[αAllylPro]D[tBuAla][B5(3)]DTAA[1Nal]T[PyrS2″]F[Bta]S-NH2
modifications: staple 1-4; staple 4-11 (inferred); not fully specified; printed as Ac-PL3-Asp-Npg-B5-Asp-Thr-Ala-Ala-1NapA-Thr-PyrS2-Phe-BztA-Ser-NH2

EC50 [5]: 181 nM
IC50 [6]: 181 nM
B7: I-1267 (peptide)
peptide: Ac-[αAllylPro]D[tBuAla][B5(3)]DTAA[2Nal]T[PyrS2″]F[Bta]S-NH2
modifications: staple 1-4; staple 4-11 (inferred); not fully specified; printed as Ac-PL3-Asp-Npg-B5-Asp-Thr-Ala-Ala-2NapA-Thr-PyrS2-Phe-BztA-Ser-NH2

EC50 [5]: 31 nM
IC50 [6]: 31 nM
B8: I-1261 (peptide)
peptide: XDXXDDAAFTXFXQ
modifications: not fully specified; as printed: MeOPr-PL3-Asp-Npg-B5-Asp-Asp-Ala-Ala-Phe-Thr-S8-2C1F-BztA-Gln-NH2; stapled

IC50 [6]: 1940 nM
EC50 [7]: 1940 nM
Binder: Ac-[αAllylPro]D[tBuAla][B5(4)]DDAAFL[PyrS2″][Phe(2-Cl)][Bta][Leu(ol)] (staple 1-4, 4-11) [I-1251]

Further lines, the binder ahead of its results:

Binder: Ac-[αAllylPro]DA[B5(4)]DEAA[Ala(2-furyl)]N[S8]F[Bta]Q-NH2 (staple 1-4, 4-11) [I-460]
IC50 [1]: 196 nM
EC50 [2]: 196 nM

Binder: Ac-[αAllylPro]DA[B5(4)]DEAA[Phe(4-Me)]N[S8]F[Bta]Q-NH2 (staple 1-4, 4-11) [I-459]
IC50 [1]: 183 nM
EC50 [2]: 183 nM

Binder: Ac-[αAllylPro]DA[B5(4)]DEAA[Phe(2-Me)]N[S8]F[Bta]Q-NH2 (staple 1-4, 4-11) [I-456]
IC50 [1]: 2170 nM
EC50 [2]: 2170 nM

Binder: Ac-[αAllylPro]D[Abu(4,4,4-F3)][B5(4)]DEAAFQ[S8]F[Bta]H-NH2 (staple 1-4, 4-11) [I-504]
EC50 [3]: 65 nM
IC50 [4]: 65 nM

Binder: Ac-[αAllylPro]DA[B5(4)]DEAA[Phe(4-NH2)]N[S8]F[Bta]Q-NH2 (staple 1-4, 4-11) [I-461]
IC50 [1]: 125 nM
EC50 [2]: 125 nM

Binder: Ac-[αAllylPro]DA[B5(20)]DEAAFN[S8][3Thi][Bta]H-NH2 (staple 1-4, 4-11; also: later-eluting HPLC peak of staple isomers) [I-516]
IC50 [4]: 23 nM

Binder: Ac-[αAllylPro]DA[B5(20)]DEAAFN[S8][3Thi][Bta]Q-NH2 (staple 1-4, 4-11; also: later-eluting HPLC peak of staple isomers) [I-519]
IC50 [4]: 33 nM

Binder: Ac-[αAllylPro]D[Nva][B5(4)]DEAAFQ[S8]F[Bta]Q-NH2 (staple 1-4, 4-11; also: later eluting HPLC peak staple isomer) [I-523]
IC50 [4]: 44 nM

Binder: Ac-[αAllylPro]DA[B5(4)][Dap](Ms)EAAFN[S8]F[Bta]Q-NH2 (staple 1-4, 4-11) [I-529]
EC50 [3]: 5000 nM
IC50 [4]: 5000 nM

Binder: Ac-[αAllylPro]DA[B5(4)]DEAA[Ala(4-thiazolyl)]N[S8]F[Bta]Q-NH2 (staple 1-4, 4-11) [I-524]
EC50 [3]: 2550 nM
IC50 [4]: 2550 nM

Binder: Ac-[αAllylPro]DI[B5(20)]DEAAFN[S8][3Thi][Bta]Q-NH2 (staple 1-4, 4-11; also: later-eluting HPLC peak of staple isomers) [I-521]
IC50 [4]: 23 nM

Binder: Ac-[αAllylPro]DA[B5(4)]DEAA[Phe(3-Me)]N[S8]F[Bta]Q-NH2 (staple 1-4, 4-11) [I-458]
IC50 [1]: 102 nM
EC50 [2]: 102 nM

Binder: Ac-[αAllylPro]DI[B5(20)]DEAAFN[S8][3Thi][Bta]H-NH2 (staple 1-4, 4-11) [I-517]
EC50 [3]: 15 nM
IC50 [4]: 15 nM

Binder: Ac-[αAllylPro]DA[B5(4)][Dab](Ms)EAAFN[S8]F[Bta]Q-NH2 (staple 1-4, 4-11) [I-532]
EC50 [3]: 5000 nM
IC50 [4]: 5000 nM

Binder: Ac-[αAllylPro]DA[B5(4)]DEAA[Phe(2-Me)]N[S8]F[Bta]Q-NH2 (staple 1-4, 4-11) [I-457]
IC50 [1]: 1440 nM
EC50 [2]: 1440 nM

Binder: Ac-[αAllylPro]DA[B5(4)][Dap](Ms)EAAFN[S8]F[Bta]Q-NH2 (staple 1-4, 4-11) [I-530]
EC50 [3]: 5000 nM
IC50 [4]: 5000 nM

Binder: Ac-[αAllylPro]DA[B5(4)][Dab](Ms)EAAFN[S8]F[Bta]Q-NH2 (staple 1-4, 4-11) [I-531]
EC50 [3]: 5000 nM
IC50 [4]: 5000 nM

Binder: Ac-[αAllylPro]D[Abu(4,4-F2)][B5(4)]DEAAFQ[S8]F[Bta]Q-NH2 (staple 1-4, 4-11) [I-503]
EC50 [8]: 84 nM
IC50 [4]: 84 nM

Binder: Ac-[αAllylPro]DA[B5(4)]DEAAFQ[S8]F[Bta][Abu]-NH2 (staple 1-4, 4-11) [I-509]
EC50 [3]: 99 nM
IC50 [4]: 99 nM

Binder: Ac-[αAllylPro]D[tBuAla][B5(4)]DDAAFL[PyrS2″][Phe(2-Cl)][Bta][Thr(ol)] (staple 1-4, 4-11) [I-1249]
IC50 [6]: 17 nM
EC50 [7]: 17 nM
